Experimental findings from patent US20240091361A1, “T CELL RECEPTORS TARGETING RAS MUTATIONS AND USES THEREOF” (MEMORIAL SLOAN-KETTERING CANCER CENTER, priority 2021, published 2024) are described below.

Experiment [1] concerns the target T1, KRAS wild type (10-mer) peptide on HLA-A*11:01 (human).
T1 peptide: VVVGAGGVGK
Briefly: cytokine release.

Experiment [2] concerns the target T2, GEM (also listed as SEQ ID NOs 82, 106, 130, 141) peptide on HLA-A*11:01 (human).
T2 peptide: AVFGAGGVGK
Put plainly: cytokine release.

In experiment [3] the target is T3, BY55 peptide on HLA-A*11:01 (human).
T3 peptide: RDPGIDGVGE
Briefly: cytokine release.

Experiment [4] has as its target T4, CO6A3 peptide on HLA-A*11:01 (human).
T4 peptide: GDDGRDGVGS
Put plainly: cytokine release.

The target in experiment [5] is T5, CO8A2 peptide on HLA-A*11:01 (human).
T5 peptide: GPPGVDGVGV
Briefly: cytokine release.

The target in experiment [6] is T6, COBA1 peptide on HLA-A*11:01 (human).
T6 peptide: GPAGQDGVGG
Put plainly: cytokine release.

Experiment [7] concerns the target T7, COIA1 peptide on HLA-A*11:01 (human).
T7 peptide: GDPGKDGVGQ
Briefly: cytokine release.

In experiment [8] the target is T8, EFGM peptide on HLA-A*11:01 (human).
T8 peptide: EVKGKDGVGA
Put plainly: cytokine release.

The target of experiment [9] is T9, MEIS1 peptide on HLA-A*11:01 (human).
T9 peptide: HYGGMDGVGI
Briefly: cytokine release.

The target of experiment [10] is T10, MEIS2 peptide on HLA-A*11:01 (human).
T10 peptide: HYGGMDGVGV
Briefly: cytokine release.

Experiment [11] deals with T11, PUR2 peptide on HLA-A*11:01 (human).
T11 peptide: LASGTDGVGT
Put plainly: cytokine release.

The target of experiment [12] is T12, USH1G peptide on HLA-A*11:01 (human).
T12 peptide: EDGGLDGVGA
Briefly: cytokine release.

For experiment [13], the target named is T13, ABCF1 peptide on HLA-A*11:01 (human).
T13 peptide: CIVGPNGVGK
Briefly: cytokine release.

In experiment [14] the target is T14, AGRIN peptide on HLA-A*11:01 (human).
T14 peptide: PVCGSDGVTY
Briefly: cytokine release.

The target in experiment [15] is T15, CGAT2 peptide on HLA-A*11:01 (human).
T15 peptide: RNVGANGIGY
Briefly: cytokine release.

In experiment [16] the target is T16, DNHD1 peptide on HLA-A*11:01 (human).
T16 peptide: TVLGPNGVGK
Put plainly: cytokine release.

Experiment [17] concerns the target T17, IBP7 peptide on HLA-A*11:01 (human).
T17 peptide: PVCGSDGTTY
Briefly: cytokine release.

Experiment [18] has as its target T18, NLRP9 peptide on HLA-A*11:01 (human).
T18 peptide: VLEGPDGIGK
Briefly: cytokine release.

Experiment [19] deals with T19, PRA19 peptide on HLA-A*11:01 (human).
T19 peptide: KLFISDGCGY
Put plainly: cytokine release.

Experiment [20] concerns the target T20, SMC5 peptide on HLA-A*11:01 (human).
T20 peptide: MIVGANGTGK
Briefly: cytokine release.

Experiment [21] has as its target T21, SO3A1 peptide on HLA-A*11:01 (human).
T21 peptide: PVCGADGITY
Briefly: cytokine release.

Experiment [22] deals with T22, SO5A1 peptide on HLA-A*11:01 (human).
T22 peptide: PVCGSDGITY
Briefly: cytokine release.

Experiment [23] addresses T23, SOCS7 peptide on HLA-A*11:01 (human).
T23 peptide: GSGGGDGTGK
Briefly: cytokine release.

The target in experiment [24] is T24, SUCB2 peptide on HLA-A*11:01 (human).
T24 peptide: CAIIANGITK
Put plainly: cytokine release.

The target in experiment [25] is T25, KRAS G12D (10-mer; the same sequence in NRAS G12D and HRAS G12D) peptide on HLA-A*11:01 (human).
T25 peptide: VVVGADGVGK
Briefly: multimer staining.

In experiment [26] the target is T26, TUTLA (also listed as SEQ ID NO 134) peptide on HLA-A*11:01 (human).
T26 peptide: ISQGADGRGK
Put plainly: cytokine release.

Experiment [27] deals with T27, FRPD4 peptide on HLA-A*11:01 (human).
T27 peptide: KSKLADGEGK
Put plainly: cytokine release.

Experiment [28] deals with T28, TAF6 peptide on HLA-A*11:01 (human).
T28 peptide: GATTADGKGK
Briefly: cytokine release.

The target of experiment [29] is T29, DCAF7 peptide on HLA-A*11:01 (human).
T29 peptide: ASVGADGSVR
Put plainly: cytokine release.

For experiment [30], the target named is T30, ELP2 peptide on HLA-A*11:01 (human).
T30 peptide: VSAAADSAVR
Put plainly: cytokine release.

Experiment [31] addresses T31, FRPD1 peptide on HLA-A*11:01 (human).
T31 peptide: KVAAADGPAR
Briefly: cytokine release.

Experiment [32] addresses T32, INO80 peptide on HLA-A*11:01 (human).
T32 peptide: SSLAPDSLVR
Put plainly: cytokine release.

The target of experiment [33] is T33, KI26A peptide on HLA-A*11:01 (human).
T33 peptide: PVAGPDGLSK
Put plainly: cytokine release.

Experiment [34] addresses T34, PRP4 peptide on HLA-A*11:01 (human).
T34 peptide: ASCAADGSVK
Put plainly: cytokine release.

B1: TCR 4 (TCR, V domains shown)
Valpha: QKEVEQDPGPLSVPEGAIVSLNCTYSNSAFQYFMWYRQYSRKGPELLMYTYSSGNKEDGRFTAQVDKSSKYISLFIRDSQPSDSATYLCAMGALNSGAGSYQLTFGKGTKLSVIP
Vbeta: KAGVTQTPRYLIKTRGQQVTLSCSPISGHRSVSWYQQTPGQGLQFLFEYFSETQRNKGNFPGRFSGRQFSNSRSEMNVSTLELGDSALYLCASSLSSGTGTEAFFGQGTRLTVV
B1: the binding result in experiment [1], in [2], in experiment [3], in experiment [4], in experiment [5] and in [6] was “no recognition” each time. The binding result in experiment [7], in experiment [8], in experiment [9], in experiment [10], in [11] and in experiment [12] was “no recognition” in each case. Moreover, the binding result in experiment [13], in [14], in [15], in experiment [16], in [17] and in [18] was “no recognition” throughout. Further, the binding result in experiment [19], in [20], in [21], in [22], in experiment [23] and in [24] was “no recognition” throughout. For the same molecule, in experiment [25], the binding result is listed as “recognises”.

B2: TCR 5 (TCR, V domains shown)
Valpha: GEDVEQSLFLSVREGDSSVINCTYTDSSSTYLYWYKQEPGAGLQLLTYIFSNMDMKQDQRLTVLLNKKDKHLSLRIADTQTGDSAIYFCAERDAGNNRKLIWGLGTSLAVNP
Vbeta: GAGVSQSPRYKVAKRGQDVALRCDPISGHVSLFWYQQALGQGPEFLTYFQNEAQLDKSGLPSDRFFAERPEGSVSTLKIQRTQQEDSAVYLCASSLEGGDTQYFGPGTRLTVL
As for B2, the binding result in experiment [1], in [2], in experiment [26], in experiment [27], in experiment [28] and in experiment [29] was “no recognition” throughout. The binding result in experiment [30] is listed as “no recognition”; in experiment [31], “no recognition”; in experiment [32], “no recognition”; in experiment [33], “no recognition”; in experiment [34], “no recognition”; in experiment [25] it was “recognises”.
